{"source": "patent US20220152204A1", "about": "“PHOTOIMMUNOTHERAPY AND PHARMACEUTICAL AGENT USED THEREFOR” (SHIMADZU CORPORATION, priority 2019, published 2022)", "key": {"[1]": {"test_system": "xenograft model animals implanted with A431", "assay": "Mouse experiment: fluorescent intensity monitoring of pharmaceutical agent accumulation in A431 xenograft model animals", "type": "in vivo", "conditions": "A431 xenograft mice, 0.033 μmol, Pearl Imager, monitored up to 180 min", "protocol": "Five xenograft model animals implanted with A431 were treated with 0.033 μmol IF7C-IR700, and the fluorescent intensity of body surface, tumor and liver of the mice was monitored at 10 min intervals for up to 60 min and at 30 min intervals for up to 180 min with a Pearl Imager (LI-COR Bioscience) to check for accumulation of pharmaceutical agent. The fluorescent intensity over the tumor reached a maximum at 60 min, so exposure to therapeutic light was performed 60 min after pharmaceutical agent injection to carry out NIR-PIT with IF7C-IR700. For the PIT, exposure to NIR light was performed under conditions which enable cleavage of the IR700, at a wavelength of 680 nm to 690 nm and a dose of 10 J/cm^2."}, "[2]": {"test_system": "Epidermal cancer cells (A431)", "assay": "Observation under fluorescent microscope of A431 cells before and after 690 nm laser exposure", "type": "cell-based", "conditions": "20 μg added, 10 minutes at 37° C., 690 nm laser at 50 J", "protocol": "Epidermal cancer cells (A431) were placed at 10,000 cells/mL into a 3.5 mm dish and incubated for 1 day. Subsequently, 20 μg of IF7C-IR700 or IR700 was added to the respective dish and incubation was performed for 10 minutes at 37° C.\nExposure to a 690 nm laser was performed at 50 J, and the A431 cells before and after exposure were observed under a fluorescent microscope (IX61 or IX81; Olympus America). […] From this, it can be inferred that IF7C-IR700 is internalized by cells and undergoes a reaction, causing the cells to shrink."}}, "note": "Ends that are not written are not given here.", "data": [{"substance": "IF7C-IR700: IF7-C peptide (IFLLWQRC, SEQ ID NO: 6) conjugated with IR700 maleimide via the cysteine SH residue (IFLLWQRC(IR700 maleimide))", "values": [{"measurement": "time at which fluorescent intensity over the tumor reached a maximum", "setting": "[1]", "value": 60, "unit": "min"}, {"measurement": "cell shrinkage observed under fluorescent microscope after exposure", "setting": "[2]", "value": "the cells had shrunk"}]}]}
